These results are taken from US20170107294A1, “ANTI-CD14 ANTIBODIES AND USES THEREOF” (Nordlandssykehuset HF, priority 2014, published 2017).

In series [1] the test system is porcine whole blood. The series can be described thus: Whole blood ex vivo model of inflammation, E. coli-induced cytokine release in porcine blood. The series is classed as cell-based. Conditions: heat-inactivated E. coli. As to the method:
(§1) The whole blood model has been described in detail previously (36). Fresh human venous or porcine arterial blood was drawn directly into tubes containing the anticoagulant lepirudin (Pharmion) at a final concentration of 50 mg/ml. In 1.8-ml Cryo Tube vials (Nunc, Roskilde, Denmark), the blood was preincubated with up to 20 mg/ml anti-human CD14 (r18D11 or 18D11), or 50 mg/ml anti-porcine CD14 (rMil2 or Mil2) at 37° C. for 10 min prior to an additional 2-h incubation in the presence of 100 ng/ml ultrapure LPS from Escherichia coli 0111:B4 (InvivoGen, San Diego, Calif.) for human blood or 1 3 105/ml heat-inactivated E. coli (strain LE392, ATCC33572) for porcine blood. As negative controls, PBS with MgCl2 and CaCl2 (Sigma-Aldrich) and isotype controls were used. Adverse effects were tested using nonactivated whole blood samples. After the addition of 10 mM (human) or 20 mM (porcine) EDTA, plasma was gained by 15 min centrifugation at 3220 3 g and 4° C. Levels of TNF, IL-6, and IL-1b in human plasma were determined using Bioplex technology (Bio-Rad Laboratories AB). Levels of TNF, IL-1b, and IL-8 in porcine plasma were determined using ELISA (Quantikine, R&D Systems, Minneapolis, Minn.). Platelet count was quantified by impedance using a CELL-DYN Sapphire hematology analyzer (Abbott Laboratories, Abbott Park, Ill.).

Series [2] deals with porcine whole blood. The experiment in a line: Adverse (IgG-Fc mediated) effects in nonactivated porcine whole blood. The format is cell-based. Conditions: absence of inflammatory stimuli; for spontaneous IL-8 release: 50 mg/ml; for platelet counts / platelet aggregation: up to 71.4 mg/ml. As for the experimental part:
as §1

In series [3] the test system is porcine whole blood. The series can be described thus: rMil2 combined with C5 inhibitor OmCI: cytokine production in porcine whole blood ex vivo. The format is cell-based. Conditions: E. coli-incubated porcine whole blood. As for the experimental part:
as §1
Whole blood was incubated with 1 3 106 E. coli per milliliter for 2 h at 37° C. in the absence or presence of inhibitors and controls. TNF, IL-1b, and IL-8 blood was analyzed as described above.

On the set-up of series [4]: species or system Norwegian domestic piglets (Sus scrofa domesticus). Conditions: in vivo, iv; for heart rate (effect in words): 0.32 mg/kg. As to the method: (§2) In vivo application of anti-porcine CD14 Abs Norwegian domestic piglets (Sus scrofa domesticus, outbred stock) with a weight of 2.2 kg were isolated at the day of intervention. Anesthesia was induced with 5% sevoflurane in a mixture of air and oxygen until sleep. After establishment of an i.v. line, the piglets received fentanyl (15-20 mg/kg) were tracheotomized in the supine position, and a microcuffed endotracheal tube from Kimberly-Clark (Roswell, GA) with inner diameter of 4 mm was inserted. Maintenance anesthesia was provided with an infusion of fentanyl (50 mg/kg/h, and isoflurane 1-2% in oxygen-enriched air administered from a Leon plus ventilator from Heinen and Loevenstein (Bad Ems, Germany). An artery line was inserted in the right or left carotid artery for blood sampling during the experiments and for continuous measurement of mean artery pressure. The piglets were monitored with electrocardiography and pulse oximetry. Ventilator settings were adjusted to maintain 7.40 pH and oxygen saturation above 96%. Hemodynamic parameters were collected using ICUpilot software, CMA Microdialysis (Stockholm, Sweden) every 30 s. To compensate for hydration needs, the animals received a background infusion of isotonic sodium glucose solution, Salidex (Braun Medical A/S, Vestskogen, Norway) at 10 ml/kg/h. To compare the effect of the Mil2 and the rMil2 on healthy piglets, increasing amounts of a stock solution of 1 mg/ml rMil2 or Mil2 (batch 1106) were injected i.v. into two piglets at indicated times to a maximum dose of 5.36 mg/kg, and arterial blood samples were collected, in tubes containing the anticoagulants EDTA or citrate. To investigate the biological effect of rMIL2 on the inflammatory response, two piglets underwent the E. coli sepsis regimen as described previously (17). One control piglet was gives saline, and one piglet was given a bolus dose of 5 mg/kg rMil2 before infusion of the bacteria.

The test system of series [5] is E. coli-induced cytokine response. The series can be described thus: In vivo E. coli sepsis regimen in piglets, cytokine response. Further details: species or system Norwegian domestic piglets (Sus scrofa domesticus). Conditions: bolus 5 mg/kg before i.v. E. coli; vs saline control piglet. As for the experimental part: as §2
In series [6] the target is T1, porcine CD14 (Sus scrofa, UniProt F6PST4).
T1 sequence (F6PST4 21-373): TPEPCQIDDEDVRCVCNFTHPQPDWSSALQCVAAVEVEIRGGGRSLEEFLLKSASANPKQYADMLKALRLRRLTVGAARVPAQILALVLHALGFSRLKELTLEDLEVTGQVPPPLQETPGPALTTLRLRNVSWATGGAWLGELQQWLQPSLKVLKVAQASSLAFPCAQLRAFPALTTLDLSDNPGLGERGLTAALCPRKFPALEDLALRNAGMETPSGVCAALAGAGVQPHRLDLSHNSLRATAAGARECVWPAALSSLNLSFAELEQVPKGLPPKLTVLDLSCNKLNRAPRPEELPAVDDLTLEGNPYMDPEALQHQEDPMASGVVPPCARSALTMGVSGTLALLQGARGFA
The experiment in a line: Leukocyte CD14 expression before and after rMil2 bolus in a piglet, flow cytometry. The format is in vivo, Norwegian domestic piglets (Sus scrofa domesticus). Also on record: endogenous in cells. Conditions: after bolus dose of 5 mg/kg. As to the method:
as §2, with “To compare the effect of the Mil2 and the rMil2 on healthy piglets, increasing amounts of a stock solution of 1 mg/ml rMil2 or Mil2 (batch 1106) were injected i.v. into two piglets at indicated times to a maximum dose of 5.36 mg/kg, and arterial blood samples were collected, in tubes containing the anticoagulants EDTA or citrate. To investigate the biological effect of rMIL2 on the inflammatory response, two piglets underwent the E. coli sepsis regimen as described previously (17). One control piglet was gives saline, and one piglet was given a bolus dose of 5 mg/kg rMil2 before infusion of the bacteria.” left out
(A flow cytometer gives signals particle by particle.)

Series [7] deals with T1, porcine CD14. The experiment in a line: CD14 binding in flow cytometry, porcine whole blood (competition with FITC-conjugated Mil2). Further details: human monocyte and porcine granulocyte populations were selected based on the forward scatter-side scatter dot plot; endogenous in cells; host or cells: granulocytes in fresh porcine whole blood (EDTA); binding sites blocked (competition with FITC-conjugated Mil2 in binding to CD14) / direct binding to porcine granulocytes: dose or concentration left out as unconfirmed. Conditions: for binding sites blocked (competition with FITC-conjugated Mil2 in binding to CD14): Ab, granulocytes in porcine whole blood. As for the experimental part:
Fresh human or porcine whole blood was drawn into tubes containing the anticoagulants lepirudin (Refludan; Pharmion, Copenhagen, Denmark) or EDTA, respectively. Blood samples were preincubated for 10 min with Ab, #20 mg/ml anti-human CD14 Abs r18D11, 18D11 F(ab)92 (batch 2068, lot 1383), or isotype controls raNIP and mIgG1 F(ab)92 (lot 1501), or […] anti-porcine CD14 Abs rMil2, Mil2 (lot 1106), or the isotype controls 4770 RECOMBINANT ANTI-CD14 Abs Downloaded from University of Oslo, Library of Medicine and Health Science on Jan. 24, 2014 for IgG2/4 and mIgG2b, eculizumab (Soliris) and mIgG2b (lot 1631), respectively. Endotoxin-free Dulbecco phosphate buffered saline, PBS (Sigma-Aldrich), was used for diluting the Abs. Subsequently, blood samples were incubated for another 15 min in the presence of detection Ab, 10 mg/ml 18D11 (batch 719, lot 3110) or 150 mg/ml FITC-conjugated Mil2 (batch 1107). Their binding was detected either by using a secondary PEconjugated anti-mouse IgG or through direct FITC fluorescence. Erythrocytes were lysed using FACS Lysing solution (BD Biosciences, Franklin Lakes, N.J.; human blood) or a solution of 0.16 M ammonium chloride, 10 mM sodium bicarbonate, 0.12 mM EDTA (Tritiplex III) and 0.04% (v/v) paraformaldehyde (porcine blood). In subsequent flow cytometry analyses, human monocyte and porcine granulocyte populations were selected based on the forward scatter-side scatter dot plot, and CD14 binding was recorded as mean or median fluorescence intensity, respectively. In contrast to humans, porcine CD14 is constitutively expressed on mature granulocytes (32, 33). Fluorescence intensities in the presence of the fluorescently labeled Abs only were set to 100%. Flow cytometry analyses on human samples were performed using an LSRII and FACSDiva software version 5.0.3; porcine samples were analyzed on a FACSCalibur using Cell Quest Pro version 5.2.1 for data acquisition (all from BD Biosciences).

The next series concerns E. coli. Conditions: whole pig blood; cited from earlier work.

B1: rMil2: recombinant anti-porcine CD14 mouse/human chimeric IgG2/4 Ab; VL SEQ ID NO:3, VH SEQ ID NO:4 (antibody, V domains shown)
VH: MGWSCIILFLVATATGVHSQVRLQQPGAELVRPGASVKLSCKASGYTFTTYWMNWVKQRPEDGLEWIGRIDPYDSETHYNQNFKDKAILTVDKSSSTAYMQLSSLTYEDSAVYYCTRKEGRQWGAYFDYWGQGTTLTVSSA
VL: MGWSCIILFLVATATGVHSDIVMTQSQKFMSTSVGDRVSVTCKASQYVGTNVAWYQQKPGQSPKALIQSASYRCSGVPDRFTGSGSGTDFTLTISNVQSEDLADYFCQQYNTYVTFGGGTKLELKR
modifications: human IgG2/4 constant regions
On to B1, for which, in the series on porcine whole blood [1], the “block of IL-1b release compared with Mil2” value was “as effective as Mil2” and the “inhibition of TNF release compared with Mil2” value is on record as “slightly less inhibitory”. In the series with porcine whole blood [2], the “spontaneous IL-8 release” value was “Neither IL-8 secretion nor platelet drop nor aggregation was observed” and the “platelet counts / platelet aggregation” value was “Neither IL-8 secretion nor platelet drop nor aggregation was observed”. Besides, in the series with porcine whole blood [3], the “IL-1b release (effect in words)” value is on record as “significantly reduced the production”; the “IL-8 release (effect in words)” value was “seemed to be substantial, but did not reach statistical significance”; the “TNF release (effect in words)” value was “significantly reduced”. Further, in series [4], the “heart rate (effect in words)” value is “but not rMil2, caused an increase in heart rate”. Moreover, in series [5], the “IL-1b reduction (area under the curve)” value is reported as 89%, the “IL-6 reduction (area under the curve)” value was 88%, the “IL-8 reduction (area under the curve)” value was found to be 100% and the “TNF reduction (area under the curve)” value was found to be 71%. In addition, the “reduction in leukocyte CD14 expression (saturation of CD14)” value with porcine CD14 [6] was found to be 94%. For the same molecule, the “binding sites blocked (competition with FITC-conjugated Mil2 in binding to CD14)” value with porcine CD14 [7] is reported as approximately 50%. Also, the “direct binding to porcine granulocytes” value in the series with porcine CD14 [7] (not shown) is reported as “saturated”. In addition, the “displacement of original clone Mil2 from CD14+ granulocytes” value with porcine CD14 [7] (porcine whole blood) is “effectively bound to and displaced the original clone”.

B2: Mil2: mouse anti-porcine CD14 IgG2b clone Mil2 (Serotec), original murine clone (antibody, V domains shown)
VH: QVRLQQPGAELVRPGASVKLSCKASGYTFTTYWMNWVKQRPEDGLEWIGRIDPYDSETHYNQNFKDKAILTVDKSSSTAYMQLSSLTYEDSAVYYCTRKEGRQWGAYFDYWGQGTTLTVSSA
VL: DIVMTQSQKFMSTSVGDRVSVTCKASQYVGTNVAWYQQKPGQSPKALIQSASYRCSGVPDRFTGSGSGTDFTLTISNVQSEDLADYFCQQYNTYVTFGGGTKLELKR
As for B2, in the series on porcine whole blood [2], the “spontaneous IL-8 release” value is “strong spontaneous IL-8 release” and the “platelet counts / platelet aggregation” value is given as “dose-dependent drop in platelet counts”. Also, in the series on porcine whole blood [3], the “IL-1b release (effect in words)” value is reported as “not significantly reduced”, the “IL-8 release (effect in words)” value is “markedly enhanced the release” and the “TNF release (effect in words)” value is “significantly reduced”. In series [4], the maximum heart rate was approximately 300 beats/min and the “heart rate (effect in words)” value is reported as “caused an increase in heart rate”. Besides, the E. coli survival entry with E. coli is “does not affect E. coli survival”. The “binding sites blocked (competition with FITC-conjugated Mil2 in binding to CD14)” value with porcine CD14 [7] is approximately 50%.
